Assay results reported in publication PMC7249120, “Hybrid Imaging Agents for Pretargeting Applications Based on Fusarinine C—Proof of Concept” (Molecules, 2020).

Legend:
[1] = format: physicochemical; conditions: pH 7.4
Experimental: To determine the hydrophilicity the distribution of the ^68Ga-labeled conjugates between an organic (octanol) and aqueous (PBS) layer was assessed. Aliquots (50 µL) of the ^68Ga-labeled tracers (~5 µM) were diluted in 1 mL of octanol/PBS (1:1, v/v) and the mixture was vortexed at 1400 rpm (MS 3 basic vortexer, IKA, Staufen, Germany) for 15 min at RT. Subsequently the mixture was centrifuged for 2 min at 4500 rpm followed by measuring aliquots (50 µL) of both layers in the gamma counter (Wizard^2 3”, Perkin Elmer, Waltham, MA, USA). LogD was calculated using Microsoft Excel (n = 3, six replicates).

[2] = tested on: CD20-expressing Raji cells pre-treated with Rituximab(RTX)–TCO; assay: Cell binding studies on Raji cells pre-treated with RTX-TCO or non-modified RTX; format: cell-based, human; set-up: concentration or dose not given beside the values; conditions: radioligand 30 min, 37 °C
Experimental: CD20-expressing Raji cells ([…] lymphoblast-like B-lymphocyte cells) were obtained from the American Type Culture Collection (ATCC, Manassas, Virginia, USA). The cells were cultured in tissue culture flasks (Cellstar; Greiner Bio-One, Kremsmuenster, Austria) using RPMI-1640 medium with 10% (v/v) fetal bovine serum (FBS) as supplement (Invitrogen Corporation, Lofer, Austria). For cell binding studies 10 × 10^6 cells were washed twice with fresh medium, diluted with PBS to a final concentration of 1 × 10^6 cells per mL and 500 µL of cell suspension was transferred to Eppendorf tubes. Hereafter, 50 µL of RTX–TCO or non-modified RTX as negative control (both 0.5 µM) was added and the cell suspension was maintained at 37 °C under gentle shaking. After 1 h the suspension was centrifuged (2 min, 11 × 10^3 rcf), the supernatant was discarded and the cells were washed twice with 600 µL PBS and finally resuspended with 450 µL PBS. Subsequently 50 µL of the radioligand solution (22 nM) was added and the suspension was incubated for 30 min at 37 °C. After centrifugation and two washing steps with 600 µL PBS, the cells were resuspended in 500 µL PBS and transferred to polypropylene vials for gamma counter measurement followed by calculation of cell-associated activity in comparison to the total activity applied (n = 3, six replicates).

[3] = set-up: species or system BALB/c mice; conditions: mouse, in vivo, iv
Experimental: Biodistribution studies of the FSC-based hybrid imaging agents radiolabeled with Gallium-68 were performed using healthy five-week-old female BALB/c mice (Charles River Laboratories, Sulzfeld, Germany). Animals (n = 3) were injected via lateral tail vein with 1 nmol of conjugate and a total activity of approximately 6 MBq. Mice were sacrificed by cervical dislocation 1 h p.i. followed by collection of the main organs and tissue, subsequent gamma counter measurement and calculation of the percentage of injected activity per gram tissue (% IA/g).

[4] = tested on: TCO-alendronate pre-treated mice (bone); assay: PET/CT and optical imaging in the alendronate-TCO bone pretargeting model; format: in vivo, BALB/c mice; conditions: TCO-alendronate pre-treated mice vs alendronate alone; PET/CT 1 h p.i., OI of excised bones 24 h p.i.
Experimental: For the proof of concept of pretargeting in vivo a model described by Yazdani et al. was applied, based on TCO-modified alendronate for bone targeting. For preparation of TCO–alendronate, briefly, 20 mg sodium alendronate trihydrate (Sigma Aldrich) was dissolved in 400 µL 0.1N sodium-bicarbonate solution pH 8.5. Then 0.6 mL TCO–NHS ester (Click chemistry tools, Scottsdale, AZ, USA), 20 mg/mL in DMSO, were slowly added to the solution and stirred overnight in the dark, followed by freeze drying. As a control the same preparation was prepared, replacing TCO–NHS solution by the same volume of DMSO. For injection in mice the residue was dissolved in water and adjusted to pH 7 (30 mM).
MicroPET/CT images were acquired with an Albira PET/SPECT/CT small animal imaging system (Bruker Biospin Corporation, Woodbridge, CT, USA). […] After reconstruction, acquired data was viewed and analyzed with PMOD software (PMOD Technologies Ltd., Zurich, Switzerland).
Near-infrared in vivo fluorescence imaging was performed with an In-Vivo MS FX PRO small animal imaging system (Bruker Biospin Corporation, Woodbridge, CT, USA) after the PET/CT investigation. […] An appropriate filter set (λex = 710 nm and λem = 790 nm) was used for acquiring the fluorescence of the IRDye800CW-conjugates ex vivo. […] Acquired images were analyzed using Bruker MI SE software (Bruker Biospin Corporation, Woodbridge, CT, USA).

Structure (SMILES)	logD [1]	Cell binding (cell-associated activity of total activity applied) [2] [%]	Organ activities compared with SulfoCy5 and IRDye800CW counterparts [3]	Bone uptake in PET/CT and optical imaging [4]
CC(=O)N[C@H]1CCCN(O)C(=O)/C=C(/C)CCOC(=O)[C@@H](NC(=O)CCOCCOCCOCCOCCOCCC(=O)NCc2ccc(-c3nncnn3)cc2)CCCN(O)C(=O)/C=C(/C)CCOC(=O)[C@@H](NC(=O)CCCCC[N+]2=C(/C=C/C3=CC(=C/C=C4/N(C)c5ccc(S(=O)(=O)O)cc5C4(C)C)/CCC3)C(C)(C)c3cc(S(=O)(=O)[O-])ccc32)CCCN(O)C(=O)/C=C(/C)CCOC1=O [SulfoCy7-MAFC-PEG5-Tz]	-1.92 ± 0.05	4.12 ± 0.88	higher activities in all organs	–
C/C1=C/C(=O)N(O)CCC[C@H](NC(=O)CCOCCOCCOCCOCCOCCC(=O)NCc2ccc(-c3nncnn3)cc2)C(=O)OCC/C(C)=C\C(=O)N(O)CCC[C@H](NC(=O)CCOCCOCCOCCOCCOCCC(=O)NCc2ccc(-c3nncnn3)cc2)C(=O)OCC/C(C)=C\C(=O)N(O)CCC[C@H](NC(=O)CCCCC[N+]2=C(/C=C/C3=C(Oc4ccc(S(=O)(=O)O)cc4)C(=C/C=C4/N(CCCCS(=O)(=O)O)c5ccc(S(=O)(=O)O)cc5C4(C)C)/CCC3)C(C)(C)c3cc(S(=O)(=O)[O-])ccc32)C(=O)OCC1 [IRDye800CW-FSC-(PEG5-Tz)2]	-2.46 ± 0.09	4.59 ± 1.45	–	high accumulation in joints and spine
C/C1=C/C(=O)N(O)CCC[C@H](NC(=O)CCOCCOCCOCCOCCOCCC(=O)NCc2ccc(-c3nncnn3)cc2)C(=O)OCC/C(C)=C\C(=O)N(O)CCC[C@H](NC(=O)CCOCCOCCOCCOCCOCCC(=O)NCc2ccc(-c3nncnn3)cc2)C(=O)OCC/C(C)=C\C(=O)N(O)CCC[C@H](NC(=O)CCCCC[N+]2=C(/C=C/C=C/C=C3/N(C)c4ccc(S(=O)(=O)O)cc4C3(C)C)C(C)(C)c3cc(S(=O)(=O)[O-])ccc32)C(=O)OCC1 [SulfoCy5-FSC-(PEG5-Tz)2]	-2.29 ± 0.1	5.91 ± 1.62	–	–
CC(=O)N[C@H]1CCCN(O)C(=O)/C=C(/C)CCOC(=O)[C@@H](NC(=O)CCOCCOCCOCCOCCOCCC(=O)NCc2ccc(-c3nncnn3)cc2)CCCN(O)C(=O)/C=C(/C)CCOC(=O)[C@@H](NC(=O)CCCCC[N+]2=C(/C=C/C=C/C=C3/N(C)c4ccc(S(=O)(=O)O)cc4C3(C)C)C(C)(C)c3cc(S(=O)(=O)[O-])ccc32)CCCN(O)C(=O)/C=C(/C)CCOC1=O [SulfoCy5-MAFC-PEG5-Tz]	-2.85 ± 0.08	3.09 ± 0.58	–	–
CC(=O)N[C@H]1CCCN(O)C(=O)/C=C(/C)CCOC(=O)[C@@H](NC(=O)CCOCCOCCOCCOCCOCCC(=O)NCc2ccc(-c3nncnn3)cc2)CCCN(O)C(=O)/C=C(/C)CCOC(=O)[C@@H](NC(=O)CCCCC[N+]2=C(/C=C/C3=C(Oc4ccc(S(=O)(=O)O)cc4)C(=C/C=C4/N(CCCCS(=O)(=O)O)c5ccc(S(=O)(=O)O)cc5C4(C)C)/CCC3)C(C)(C)c3cc(S(=O)(=O)[O-])ccc32)CCCN(O)C(=O)/C=C(/C)CCOC1=O [IRDye800CW-MAFC-PEG5-Tz]	-2.4 ± 0.05	2.88 ± 0.53	–	–
